B1: Translocated intimin receptor Tir (Escherichia coli O127:H6 (strain E2348/69 / EPEC)), B7UM99 (parent)
chain: MPIGNLGNNVNGNHLIPPAPPLPSQTDGAARGGTGHLISSTGALGSRSLFSPLRNSMADSVDSRDIPGLPTNPSRLAAATSETCLLGGFEVLHDKGPLDILNTQIGPSAFRVEVQADGTHAAIGEKNGLEVSVTLSPQEWSSLQSIDTEGKNRFVFTGGRGGSGHPMVTVASDIAEARTKILAKLDPDNHGGRQPKDVDTRSVGVGSASGIDDGVVSETHTSTTNSSVRSDPKFWVSVGAIAAGLAGLAATGIAQALALTPEPDDPTTTDPDQAANAAESATKDQLTQEAFKNPENQKVNIDANGNAIPSGELKDDIVEQIAQQAKEAGEVARQQAVESNAQAQQRYEDQHARRQEELQLSSGIGYGLSSALIVAGGIGAGVTTALHRRNQPAEQTTTTTTHTVVQQQTGGNTPAQGGTDATRAEDASLNRRDSQGSVASTHWSDSSSEVVNPYAEVGGARNSLSAHQPEEHIYDEVAADPGYSVIQNFSGSGPVTGRLIGTPGQGIQSTYALLANSGGLRLGMGGLTSGGESAVSSVNAAPTPGPVRFV

Variants of: B1
Conditions: with anxa2_human ANXA2, P07355
Sequence of anxa2_human ANXA2, P07355 (P07355 whole entry): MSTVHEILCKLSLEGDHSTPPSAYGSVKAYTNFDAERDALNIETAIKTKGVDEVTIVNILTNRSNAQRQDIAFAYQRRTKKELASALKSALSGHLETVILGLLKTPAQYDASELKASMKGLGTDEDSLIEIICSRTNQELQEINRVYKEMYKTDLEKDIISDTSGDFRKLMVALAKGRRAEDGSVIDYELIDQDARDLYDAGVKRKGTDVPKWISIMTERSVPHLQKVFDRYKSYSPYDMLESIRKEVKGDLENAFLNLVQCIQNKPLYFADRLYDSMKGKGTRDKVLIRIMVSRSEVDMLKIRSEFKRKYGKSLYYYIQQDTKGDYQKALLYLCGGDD

Variant	effect of a mutation on the interaction
Y474S	with no effect
